The values that follow come from publication PMC2847487.

Data set [1] deals with C-terminal myc-tagged sortilin (UniProt Q99523). Briefly: co-IP.
For data set [2], the target named is triple-site mutant proNGF (mouse, cleavage-resistant) (mouse). As to the kind of experiment: crystal structure.
Data set [3] addresses sortilin extracellular region with C-terminal biotinylation acceptor peptide, biotinylated (human) (human) (UniProt Q99523). As to the kind of experiment: SPR. Background: SPR reads the build-up and loss of mass on a sensor chip optically.
Data set [4] can be described thus: size exclusion chromatography of p75NTR alone. As to conditions: glycan lost; control: wild-type glycosylated p75NTR.

Consider “N-terminal HA tagged-proNGF (from UniProt P01139 122-241) (ligand)”, for which, in data set [1], the fold increase of the proNGF:sortilin interaction with calcium over EDTA was 2.3 fold.
Consider “p75NTR extracellular portion, Asn32 to Asp glycosylation site mutant (rat) (from UniProt P07174 29-190) (receptor)”, for which the stoichiometry N (p75NTR per proNGF chain (2:2)) in data set [2] stood at 1.
The term Kd denotes the free concentration of one partner at which half of the binding sites on the other are occupied at equilibrium, for simple one-to-one binding. As for “proNGF/p75NTR complex (preformed) (from UniProt P07174 29-190)”, in data set [3], the dissociation constant Kd was 140 nM.

B1: p75NTR: Asn32 to Asp (protein)
parent chain: MRRAGAACSAMDRLRLLLLLILGVSSGGAKETCSTGLYTHSGECCKACNLGEGVAQPCGANQTVCEPCLDNVTFSDVVSATEPCKPCTECLGLQSMSAPCVEADDAVCRCAYGYYQDEETGHCEACSVCEVGSGLVFSCQDKQNTVCEECPEGTYSDEANHVDPCLPCTVCEDTERQLRECTPWADAECEEIPGRWIPRSTPPEGSDSTAPSTQEPEVPPEQDLVPSTVADMVTTVMGSSQPVVTRGTTDNLIPVYCSILAAVVVGLVAYIAFKRWNSCKQNKQGANSRPVNQTPPPEGEKLHSDSGISVDSQSLHDQQTHTQTASGQALKGDGNLYSSLPLTKREEVEKLLNGDTWRHLAGELGYQPEHIDSFTHEACPVRALLASWGAQDSATLDALLAALRRIQRADIVESLCSESTATSPV
With B1, the oligomerisation result in data set [4] is “no change”.
